In data set [1] the test system is HeLa Kyoto. Description: melting temperature (median over replicates), in situ; higher = more thermally stable.
Data set [2] deals with HeLa Kyoto. Description: thermal stability score vs G1/S (z-score of summed log2 fold changes over temperatures); higher = more thermally stable than in G1/S.
Data set [3] relates to HeLa Kyoto. Description: solubility in G1/S (NP-40 vs SDS abundance) (log2 ratio); higher = more soluble. Particulars: cell cycle stage: G1/S.
Data set [4] deals with HeLa Kyoto. Briefly: solubility change mitosis vs G1/S (difference of NP-40 vs SDS log2 ratios) (log2 ratio difference); higher = more soluble in mitosis.
Where [5] appears, read: cell cycle stage: early G1 (4.5 h after nocodazole release).
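For melting temperature (median over replicates), in situ in this document: HeLa Kyoto cells synchronized by double thymidine or nocodazole block, proteins quantified by TMT10plex mass spectrometry, three independent biological replicates.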
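For solubility change mitosis vs G1/S (difference of NP-40 vs SDS log2 ratios) in this document: synchronized HeLa Kyoto cells (double thymidine block for G1/S, nocodazole release for mitosis), protein amounts in NP-40 versus SDS lysates quantified by mass spectrometry, three biological replicates.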
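For solubility in G1/S (NP-40 vs SDS abundance) in this document: HeLa Kyoto cells arrested at G1/S by double thymidine block, proteins quantified by TMT10plex mass spectrometry in mild NP-40 versus SDS extracts, three biological replicates.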
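For thermal stability score vs G1/S (z-score of summed log2 fold changes over temperatures) in this document: synchronized HeLa Kyoto cells, proteins quantified by TMT10plex mass spectrometry, three biological replicates, mitosis taken 0.5 h after nocodazole release, G1/S directly after double thymidine block.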

In the data set on HeLa Kyoto [1] (cell cycle stage: G1/S), RAPGEF2 gave a melting temperature of 50.8 °C. Besides, the figures for the thermal stability score with HeLa Kyoto [2] (setting [5]) and in the data set with HeLa Kyoto [2] (cell cycle stage: mitosis) were -0.581 and -1.21, respectively. Further, the “solubility in G1/S (log2)” value in the data set with HeLa Kyoto [3] was -0.143. For the same substance, the “solubility change mitosis (log2)” value in the data set on HeLa Kyoto [4] was -0.144.

In the case of “MAANKSKGQSSLALHKVIMVGSGGVGKSALTLQFMYDEFVEDYEPTKADSYRKKVVLDGEEVQIDILDTAGQEDYAAIRDNYFRSGEGFLLVFSITEHESFTATAEFREQILRVKAEEDKIPLLVVGNKSDLEERRQVPVEEARSKAEEWGVQYVETSAKTRANVDKVFFDLMREIRTKKMSENKDKNGKKSSKNKKSFKERCCLL [RALB]”, the values for the melting temperature with HeLa Kyoto [1] (cell cycle stage: G1/S) and with HeLa Kyoto [1] (cell cycle stage: mitosis) were 57 °C and 57.7 °C, respectively. For the same substance, the thermal stability score with HeLa Kyoto [2] (setting [5]) was -0.446; in the data set on HeLa Kyoto [2] (cell cycle stage: mitosis) it was -2.23. Further, the “solubility in G1/S (log2)” value with HeLa Kyoto [3] is 0.046. The “solubility change mitosis (log2)” value in the data set on HeLa Kyoto [4] was 0.0599.

“MVLESVARIVKVQLPAYLKRLPVPESITGFARLTVSEWLRLLPFLGVLALLGYLAVRPFLPKKKQQKDSLINLKIQKENPKVVNEINIEDLCLTKAAYCRCWRSKTFPACDGSHNKHNELTGDNVGPLILKKKEV [CISD2]”: the melting temperature was 54.2 °C in the data set with HeLa Kyoto [1] (cell cycle stage: G1/S) and 54.7 °C with HeLa Kyoto [1] (cell cycle stage: mitosis). Moreover, the thermal stability score in the data set with HeLa Kyoto [2] (setting [5]) is -4.5; in the data set on HeLa Kyoto [2] (cell cycle stage: mitosis) it was -5.22. In addition, the “solubility in G1/S (log2)” value in the data set on HeLa Kyoto [3] was determined as 0.0551. Besides, the “solubility change mitosis (log2)” value in the data set on HeLa Kyoto [4] was 0.0164.

Take PCM1: the melting temperature with HeLa Kyoto [1] (cell cycle stage: G1/S) was 49.8 °C; in the data set on HeLa Kyoto [1] (cell cycle stage: mitosis), 50.3 °C. The thermal stability score in the data set with HeLa Kyoto [2] (setting [5]) was -0.276; in the data set with HeLa Kyoto [2] (cell cycle stage: mitosis) it was 0.507. Further, the “solubility in G1/S (log2)” value with HeLa Kyoto [3] is -0.73. Besides, in the data set on HeLa Kyoto [4], the “solubility change mitosis (log2)” value is 0.65.

Take “MTLESIMACCLSEEAKEARRINDEIERQLRRDKRDARRELKLLLLGTGESGKSTFIKQMRIIHGSGYSDEDKRGFTKLVYQNIFTAMQAMIRAMDTLKIPYKYEHNKAHAQLVREVDVEKVSAFENPYVDAIKSLWNDPGIQECYDRRREYQLSDSTKYYLNDLDRVADPAYLPTQQDVLRVRVPTTGIIEYPFDLQSVIFRMVDVGGQRSERRKWIHCFENVTSIMFLVALSEYDQVLVESDNENRMEESKALFRTIITYPWFQNSSVILFLNKKDLLEEKIMYSHLVDYFPEYDGPQRDAQAAREFILKMFVDLNPDSDKIIYSHFTCATDTENIRFVFAAVKDTILQLNLKEYNLV [GNAQ]”: the melting temperature with HeLa Kyoto [1] (cell cycle stage: G1/S) came to 54.7 °C; with HeLa Kyoto [1] (cell cycle stage: mitosis), 54.3 °C. Moreover, the thermal stability score with HeLa Kyoto [2] (setting [5]) was -0.77; in the data set on HeLa Kyoto [2] (cell cycle stage: mitosis), -0.236. In the data set on HeLa Kyoto [3], the “solubility in G1/S (log2)” value was -0.282. Moreover, the “solubility change mitosis (log2)” value in the data set with HeLa Kyoto [4] is -0.0689.

On to “MTNPSDRVLPANSMAESREGDFGCTVMELRKLMELRSRDALTQINVHYGGVQNLCSRLKTSPVEGLSGNPADLEKRRQVFGHNVIPPKKPKTFLELVWEALQDVTLIILEIAAIISLVLSFYRPAGEENELCGQVATTPEDENEAQAGWIEGAAILFSVIIVVLVTAFNDWSKEKQFRGLQCRIEQEQKFSIIRNGQLIQLPVAEIVVGDIAQVKYGDLLPADGILIQGNDLKIDESSLTGESDHVKKSLDKDPMLLSGTHVMEGSGRMVVTAVGVNSQTGIILTLLGVNEDDEGEKKKKGKKQGVPENRNKAKTQDGVALEIQPLNSQEGIDNEEKDKKAVKVPKKEKSVLQGKLTRLAVQIGKAGLLMSALTVFILILYFVIDNFVINRRPWLPECTPIYIQYFVKFFIIGITVLVVAVPEGLPLAVTISLAYSVKKMMKDNNLVRHLDACETMGNATAICSDKTGTLTMNRMTVVQAYIGGIHYRQIPSPDVFLPKVLDLIVNGISINSAYTSKILPPEKEGGLPRQVGNKTECALLGFVTDLKQDYQAVRNEVPEEKLYKVYTFNSVRKSMSTVIRNPNGGFRMYSKGASEIILRKCNRILDRKGEAVPFKNKDRDDMVRTVIEPMACDGLRTICIAYRDFDDTEPSWDNENEILTELTCIAVVGIEDPVRPEVPDAIAKCKQAGITVRMVTGDNINTARAIATKCGILTPGDDFLCLEGKEFNRLIRNEKGEVEQEKLDKIWPKLRVLARSSPTDKHTLVKGIIDSTVGEHRQVVAVTGDGTNDGPALKKADVGFAMGIAGTDVAKEASDIILTDDNFTSIVKAVMWGRNVYDSISKFLQFQLTVNVVAVIVAFTGACITQDSPLKAVQMLWVNLIMDTFASLALATEPPTESLLKRRPYGRNKPLISRTMMKNILGHAFYQLIVIFILVFAGEKFFDIDSGRKAPLHSPPSQHYTIVFNTFVLMQLFNEINSRKIHGEKNVFSGIYRNIIFCSVVLGTFICQIFIVEFGGKPFSCTSLSLSQWLWCLFIGIGELLWGQFISAIPTRSLKFLKEAGHGTTKEEITKDAEGLDEIDHAEMELRRGQILWFRGLNRIQTQIDVINTFQTGASFKGVLRRQNMGQHLDVKLVPSSSYIKVVKAFHSSLHESIQKPYNQKSIHSFMTHPEFAIEEELPRTPLLDEEEEENPDKASKFGTRVLLLDGEVTPYANTNNNAVDCNQVQLPQSDSSLQSLETSV [ATP2B4]”, for which the melting temperature turned out to be 54.7 °C in the data set with HeLa Kyoto [1] (cell cycle stage: G1/S) and 54.9 °C with HeLa Kyoto [1] (cell cycle stage: mitosis). Also, the thermal stability score in the data set on HeLa Kyoto [2] (setting [5]) is 1.12; in the data set with HeLa Kyoto [2] (cell cycle stage: mitosis), 0.912. In the data set on HeLa Kyoto [3], the “solubility in G1/S (log2)” value was -0.254. Besides, the “solubility change mitosis (log2)” value in the data set with HeLa Kyoto [4] is -0.0607.

The record behind these values is the supplement of paper PMC5998384.
